One block for each binder: values may come before it.
Columns and labels:
[1] = target: human CLDN18.2 expressed on cells (human); experiment: cell-based or functional assay
[2] = target: T1, human CLDN18.2 expressed on cells (human); experiment: flow cytometry on CHO cells expressing huCLDN18.2, GAH-FITC secondary, percent FITC-positive cells
T1 construct: also called huCLDN18.2
Procedure: CHO cells expressing huCLDN18.2 were used to assess the binding of the antibodies. Cells were seeded at 5×10⁵ cells per 100 μl into a well of a 96-well plate for each sample. Then, 100 μl of each serially diluted antibody was added to the cells, each dilution started at 40 μg/ml and was diluted 5-fold. Therefore, the final concentration of each antibody starts at 20 μg/ml followed by a 5-fold serial dilution. After 1 hour, the cells were washed twice and 100 μl of GAH-FITC (1:200 dilution) was added to each well. After 30 minutes, the cells were washed twice and resuspended in 120 μl of FACS buffer. The cells were analyzed via flow cytometry.
Unstained cells were used as a reference to set up overall target cell gating and to establish the FITC-negative populations, allowing us to establish the FITC-positive cell gate for each cell line. Additionally, the mean fluorescence intensity (MFI) of the entire population of cells was calculated to secondarily validate the FITC-positive results. The ratio of the gated positive cell number to the total live cell number is taken as the percentage of positive cells.

[3] = target: T1, human CLDN18.2 expressed on cells; experiment: cell-based or functional assay; remark: listed apart in the source
[4] = target: T1, human CLDN18.2 expressed on cells; experiment: cell-based or functional assay; remark: listed apart in the source
[5] = target: T1, human CLDN18.2 expressed on cells; experiment: cell-based or functional assay; remark: listed apart in the source
[6] = target: T1, human CLDN18.2 expressed on cells; experiment: flow cytometry (geometric mean, Alexa Fluor 647 anti-human IgG Fc) on CLDN18.2-expressing 293T cells

B1: YL-G1-19-02 (antibody, human IgG1, kappa)
heavy: not shown
light: DIVMTQSPSSLTVTAGEKVTMSCKSSQSLLNSGNQKNYLTWYQQRPGQPPKLLIYWASTRESGVPVRFTGSGSGTDFTLTISSVQAEDLAVYYCQNAYIYPLTFGTGTKLELKRTVAAPSVFIFPPSDEQLKSGTASVVCLLNNFYPREAKVQWKVDNALQSGNSQESVTEQDSKDSTYSLSSTLTLSKADYEKHKVYACEVTHQGLSSPVTKSFNRGEC
ADCC (PBMC) on KATOIII CLDN18.2 cells, LDH: max (% cytotoxity) [1]: 19.9%

EC50 (read off the curve) [2]: ~0.3 ng/mL
B2: YL-G2-D (antibody, human IgG1, kappa)
heavy: QLQQSGPELEKPGASVKISCKASGYSFTGYKMNWVKQSNGESLEWIGNIDPYYGDTTYTQKFKGKATFTVDTSSSTAYMQLKSLTSEDSAVYFCARYNRGNTMDYWGQGTSVTVSSASTKGPSVFPLAPSSKSTSGGTAALGCLVKDYFPEPVTVSWNSGALTSGVHTFPAVLQSSGLYSLSSVVTVPSSSLGTQTYICNVNHKPSNTKVDKRVEPKSCDKTHTCPPCPAPELVGGPSVFLLPPKPKDTLMISRTPEVTCVVVDVSHEDPEVKFNWYVDGVEVHNAKTKPPEEQYNSTLRVVSVLTVLHQDWLNGKEYKCKVSNKALPAPIEKTISKAKGQPREPQVYTLPPSREEMTKNQVSLTCLVKGFYPSDIAVEWESNGQPENNYKTTPLVLDSDGSFFLYSKLTVDKSRWQQGNVFSCSVMHEALHNHYTQKSLSLSPGK
light: DIVMTQSPSSLTVTAGEKVTLSCKSSQSLLNSGNQKNYLTWYQQRPGQPPKLLIYWASTRESGVPVRFTGSGSGADFTLTISSVQAEDLAVYFCQNAYFYPLTFGTGTKLELRRTVAAPSVFIFPPSDEQLKSGTASVVCLLNNFYPREAKVQWKVDNALQSGNSQESVTEQDSKDSTYSLSSTLTLSKADYEKHKVYACEVTHQGLSSPVTKSFNRGEC
notes: Fc-engineered version of YL-G1-19-04 without the first two VH residues; also called Fc-engineered chimeric antibody

EC50 (read off the curve) [2]: ~0.6 ng/mL
B3: YL-G2-C (antibody, human IgG1, kappa)
heavy: QIQLVQSGPELRKPGETVKISCKASGFPFTTDGMSWVKQAPGKGLKWMGWINTYSGVPTYADDFKGRVAFSLETSASTAYLQIKNLKNEDTATYFCARFRRGNALDNWGQGTSVTVSSASTKGPSVFPLAPSSKSTSGGTAALGCLVKDYFPEPVTVSWNSGALTSGVHTFPAVLQSSGLYSLSSVVTVPSSSLGTQTYICNVNHKPSNTKVDKRVEPKSCDKTHTCPPCPAPELVGGPSVFLLPPKPKDTLMISRTPEVTCVVVDVSHEDPEVKFNWYVDGVEVHNAKTKPPEEQYNSTLRVVSVLTVLHQDWLNGKEYKCKVSNKALPAPIEKTISKAKGQPREPQVYTLPPSREEMTKNQVSLTCLVKGFYPSDIAVEWESNGQPENNYKTTPLVLDSDGSFFLYSKLTVDKSRWQQGNVFSCSVMHEALHNHYTQKSLSLSPGK
light: DIVMTQSPSSLTVTAGEKVTMSCKSSQSLLNSGNQKNYLTWYQQKPGQPPKLLIYWASTRESGVPDRFTGSGSGTDFTLTISSVQAEDLAIYYCQNNYFYPLTFGAGTRLELKRTVAAPSVFIFPPSDEQLKSGTASVVCLLNNFYPREAKVQWKVDNALQSGNSQESVTEQDSKDSTYSLSSTLTLSKADYEKHKVYACEVTHQGLSSPVTKSFNRGEC
notes: Fc-engineered version of YL-G1-19-03; also called Fc-engineered chimeric antibody

EC50 (read off the curve) [2]: ~0.6 ng/mL
B4: YL-G2-B (antibody, human IgG1, kappa)
heavy: EVQLQQSGPELEKPGASVKISCKASGYSFTGYKMNWVKQSNGKSLEWIGNIDPYYGGTTYNQKFKGKATLTVDKSSSTAYMQLKSLTSEDSAVYYCARYGKGNTMDYWGQGTSVTVSSASTKGPSVFPLAPSSKSTSGGTAALGCLVKDYFPEPVTVSWNSGALTSGVHTFPAVLQSSGLYSLSSVVTVPSSSLGTQTYICNVNHKPSNTKVDKRVEPKSCDKTHTCPPCPAPELVGGPSVFLLPPKPKDTLMISRTPEVTCVVVDVSHEDPEVKFNWYVDGVEVHNAKTKPPEEQYNSTLRVVSVLTVLHQDWLNGKEYKCKVSNKALPAPIEKTISKAKGQPREPQVYTLPPSREEMTKNQVSLTCLVKGFYPSDIAVEWESNGQPENNYKTTPLVLDSDGSFFLYSKLTVDKSRWQQGNVFSCSVMHEALHNHYTQKSLSLSPGK
light: DIVMTQSPSSLTVTAGEKVTMSCKSSQSLLNSGNQKNYLTWYQQRPGQPPKLLIYWASTRESGVPVRFTGSGSGTDFTLTISSVQAEDLAVYYCQNAYIYPLTFGTGTKLELKRTVAAPSVFIFPPSDEQLKSGTASVVCLLNNFYPREAKVQWKVDNALQSGNSQESVTEQDSKDSTYSLSSTLTLSKADYEKHKVYACEVTHQGLSSPVTKSFNRGEC
notes: also called YL-G2-B batch 1; YL-G2-B batch 2

CDC on CT26 CLDN18.2 cells, LDH: EC50 (run A) [3]: ~11.5 nM
CDC on CT26 CLDN18.2 cells, LDH: EC50 (run B) [3]: ~10.7 nM
CDC on CT26 CLDN18.2 cells, LDH: EC50 (run C) [3]: ~11.9 nM
CDC on KATOIII CLDN18.2 cells, LDH: EC50 (run A) [4]: ~38.1 nM
CDC on KATOIII CLDN18.2 cells, LDH: EC50 (run B) [4]: ~22.7 nM
CDC on KATOIII CLDN18.2 cells, LDH: EC50 (run C) [4]: ~27.5 nM
ADCC (PBMC) on KATOIII CLDN18.2 cells, LDH: EC50 (run A) [1]: 0.12 nM
ADCC (PBMC) on KATOIII CLDN18.2 cells, LDH: EC50 (run B) [1]: 0.22 nM
ADCC (PBMC) on KATOIII CLDN18.2 cells, LDH: EC50 (run C) [1]: 0.27 nM
ADCC (PBMC) on NCI-N87 CLDN18.2 cells, LDH: EC50 (run A) [5]: 0.057 nM
ADCC (PBMC) on NCI-N87 CLDN18.2 cells, LDH: EC50 (run B) [5]: 0.082 nM
ADCC (PBMC) on NCI-N87 CLDN18.2 cells, LDH: EC50 (run C) [5]: 0.1 nM
EC50 (read off the curve) [6]: ~800 ng/mL
B5: IMAB362 (Ganymed) (antibody, V domains shown)
VH: QVQLQQPGAELVRPGASVKLSCKASGYTFTSYWINWVKQRPGQGLEWIGNIYPSDSYTNYNQKFKDKATLTVDKSSSTAYMQLSSPTSEDSAVYYCTRSWRGNSFDYWGQGTTLTVSS
VL: DIVMTQSPSSLTVTAGEKVTMSCKSSQSLLNSGNQKNYLTWYQQKPGQPPKLLIYWASTRESGVPDRFTGSGSGTDFTLTISSVQAEDLAVYYCQNDYSYPFTFGSGTKLEIKR

— patent US20250277025A1 (SHIJIAZHUANG YILING PHARMACEUTICAL, published 2025)
